The values that follow are results of earlier work, collected in patent US20240408194A1, “DNA ORIGAMI SUBUNIT VACCINE FOR PREVENTION OF SARS-CoV-2 VARIANT INFECTION” (priority 2021, published 2024).

In general, Kd refers to the free concentration of one partner at which half of the binding sites on the other are occupied at equilibrium, for simple one-to-one binding.

The target in the data set is T1, fibrinogen (Homo sapiens, UniProt P02675+P02679).
T1 sequence (P02675 31-491): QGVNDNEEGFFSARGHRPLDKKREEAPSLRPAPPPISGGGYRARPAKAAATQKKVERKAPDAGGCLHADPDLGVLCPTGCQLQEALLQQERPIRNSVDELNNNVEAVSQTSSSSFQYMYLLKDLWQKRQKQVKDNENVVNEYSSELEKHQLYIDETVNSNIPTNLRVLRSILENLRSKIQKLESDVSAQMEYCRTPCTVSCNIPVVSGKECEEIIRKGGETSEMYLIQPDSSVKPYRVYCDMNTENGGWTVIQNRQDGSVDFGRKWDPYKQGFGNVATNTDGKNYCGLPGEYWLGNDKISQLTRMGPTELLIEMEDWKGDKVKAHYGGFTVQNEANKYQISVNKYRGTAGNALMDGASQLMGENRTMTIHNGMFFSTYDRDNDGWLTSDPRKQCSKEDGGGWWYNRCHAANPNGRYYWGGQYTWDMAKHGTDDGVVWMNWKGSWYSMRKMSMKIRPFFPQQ
T1 sequence (P02679 27-453): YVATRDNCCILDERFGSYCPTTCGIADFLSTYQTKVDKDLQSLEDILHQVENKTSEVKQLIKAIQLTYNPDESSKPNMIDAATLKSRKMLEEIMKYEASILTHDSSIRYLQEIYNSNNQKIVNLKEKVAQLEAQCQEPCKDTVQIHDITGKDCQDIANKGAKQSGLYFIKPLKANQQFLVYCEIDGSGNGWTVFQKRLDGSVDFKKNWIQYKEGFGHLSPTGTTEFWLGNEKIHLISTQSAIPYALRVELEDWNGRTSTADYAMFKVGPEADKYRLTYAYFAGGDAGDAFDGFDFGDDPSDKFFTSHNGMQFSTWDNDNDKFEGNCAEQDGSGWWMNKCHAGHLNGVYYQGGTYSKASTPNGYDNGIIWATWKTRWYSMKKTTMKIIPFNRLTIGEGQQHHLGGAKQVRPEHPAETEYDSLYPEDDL
T1 sequence (P02671 20-629 partner limits assumed): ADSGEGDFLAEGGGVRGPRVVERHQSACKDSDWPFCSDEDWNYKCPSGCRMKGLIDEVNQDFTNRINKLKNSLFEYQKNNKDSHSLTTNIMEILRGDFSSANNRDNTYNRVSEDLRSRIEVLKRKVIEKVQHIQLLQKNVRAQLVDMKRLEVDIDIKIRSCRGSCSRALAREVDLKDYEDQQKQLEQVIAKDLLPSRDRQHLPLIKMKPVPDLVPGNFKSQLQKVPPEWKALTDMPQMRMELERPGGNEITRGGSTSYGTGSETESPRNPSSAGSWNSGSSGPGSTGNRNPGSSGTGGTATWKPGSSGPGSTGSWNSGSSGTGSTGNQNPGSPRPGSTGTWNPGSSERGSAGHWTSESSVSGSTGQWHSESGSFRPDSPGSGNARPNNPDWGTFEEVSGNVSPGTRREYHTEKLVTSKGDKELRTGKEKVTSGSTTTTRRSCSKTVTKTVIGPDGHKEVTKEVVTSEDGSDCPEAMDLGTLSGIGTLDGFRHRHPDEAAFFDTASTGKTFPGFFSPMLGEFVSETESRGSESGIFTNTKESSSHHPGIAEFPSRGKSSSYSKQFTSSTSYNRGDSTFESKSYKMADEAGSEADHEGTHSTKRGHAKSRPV
Conditions: hydrophobic pocket domains of fibrinogen; cited from earlier work.

With “GPRPXX: short fibrin knob peptide (SEQ ID NO: 3) that recognizes hydrophobic pocket domains of fibrinogen”, the equilibrium dissociation constant (Kd) is 5 to 10 µM.
